According to PMC9207808 (ACS Chemical Biology, 2022):
Values joined by “and” are separate entries in the source; they are usually repeats but may differ in a detail not shown here. Identical values can stand only once. Like-named read-outs stand apart in the source and are kept apart here.

What was measured:
[1] = biological target: FLAG–Phd1-73 (PhdSTm antitoxin, His6 removed by thrombin) (Salmonella typhimurium); assay: SEC; HiLoad 16/600 Superdex 75pg, 4 C, Phd SEC buffer (0.025 M K2HPO4, 0.15 M NaCl, 5% glycerol, pH 8.0); mass from the manufacturer's calibration curves; last purification step
[2] = biological target: Doc1-122–His6 (DocSTm toxin) (Salmonella typhimurium); assay: SPR; Biacore S200; Doc-His6 captured on NTA chip; Phd1-73 protein as analyte, multi-cycle kinetics, eight concentrations 25 nM to 0.390625 nM, association 200 s, dissociation 1500 s; 22 C; 10 mM HEPES, 500 mM NaCl, 50 uM EDTA, 0.005% TWEEN 20, pH 8.0; kinetic 1:1 fit with constant RMAX
[3] = biological target: Doc1-122–His6 (DocSTm toxin) (Salmonella typhimurium); assay: as above; remark: listed apart in the source
[4] = biological target: Doc1-122–His6 (DocSTm toxin) (Salmonella typhimurium); assay: SPR; Biacore S200; Doc-His6 captured on a Series S NTA chip (200-400 RU); peptide as analyte, single-cycle kinetics, six concentrations (3-fold dilutions), 30 uL/min; 22 C; 10 mM HEPES, 500 mM NaCl, 50 uM EDTA, 0.005% TWEEN 20, pH 8.0; kinetic 1:1 fit
[5] = biological target: Doc1-122–His6 (DocSTm toxin) (Salmonella typhimurium); assay: as above; remark: listed apart in the source
[6] = tested on: DocH66Y (E. coli P1 Phage); conditions: cited from earlier work
Source text: (§1) page 23: Table S5. […] Organism Complex Kd (nM) SPR Kd (nM) ITC Reference S. Typhimurium Doc-Phd1-73 0.061 ± 0.019 - This study S. Typhimurium Doc-Phd52-73 (peptide 1) 0.073 ± 0.018 - This study E. coli P1 Phage Doc-Phd1-73 350 - 5 E. coli P1 Phage DocH66Y-Phd1-73 1300 - 5 E. coli P1 Phage Doc-Phd51-73 - 240 5 E. coli P1 Phage DocH66Y-Phd52-73 - 1 6 S23

[7] = biological target: Doc1-122–His6 (DocSTm toxin) (Salmonella typhimurium); assay: SPR; Biacore S200; Doc-His6 captured on a Series S NTA chip (200-400 RU); peptide as analyte, single-cycle kinetics, six concentrations (3-fold dilutions), 30 uL/min; 22 C; 10 mM HEPES, 500 mM NaCl, 50 uM EDTA, 0.005% TWEEN 20, pH 8.0; kinetic 1:1 fit; remark: listed apart in the source
[8] = biological target: Doc1-122–His6 (DocSTm toxin) (Salmonella typhimurium); assay: as above; remark: listed apart in the source
Doc (E. coli P1 Phage) = conditions: ref 5 (ESI), read-out: Kd (nM) ITC; cited from earlier work
Source text: as §1

[9] = biological target: T1, Doc toxin of Salmonella enterica serovar Typhimurium (DocSTm) (Salmonella enterica serovar Typhimurium, UniProt A0A1C9CWN5 1-126); assay: differential scanning fluorimetry; DocSTm 5 μM with SYPRO Orange, 25 to 95 °C; 50 μM PhdSTm or peptide 1 (Figure 2a); 20 mM K2HPO4, 50 mM (NH4)2SO4, pH 8.0; shift of the melting temperature of DocSTm; conditions: both partners purified
[10] = biological target: T1, Doc toxin of Salmonella enterica …; assay: SPR; DocSTm immobilised on a Series S NTA chip (150 nM, 200-400 RU); analytes in single-cycle kinetics, typically six concentrations, kinetic 1:1 fit; 22 °C; 10 mM HEPES, 500 mM NaCl, 50 μM EDTA, 0.005% TWEEN 20, pH 8.0; conditions: both partners purified
[11] = biological target: T1, Doc toxin of Salmonella enterica …; assay: SPR; DocSTm immobilised on a Series S NTA chip; analytes in multicycle kinetics, kinetic and/or steady-state 1:1 fit (steady-state for peptide 14); 22 °C; 10 mM HEPES, 500 mM NaCl, 50 μM EDTA, 0.005% TWEEN 20, pH 8.0; conditions: both partners purified

With “FLAG–Phd1-73 (PhdSTm antitoxin, His6 removed by thrombin) (natural protein)” the stoichiometry N [1] was 2, the koff [2] was 2.9e-05 s⁻¹ and the kon [2] was 473000 M⁻¹ s⁻¹. The Kd [3] was 0.0507 nM and 0.0505 nM and 0.0883 nM, the koff [3] was 3.02e-05 s⁻¹ and 2.2e-05 s⁻¹ and 3.42e-05 s⁻¹ and the kon [3] was 596000 M⁻¹ s⁻¹ and 436000 M⁻¹ s⁻¹ and 387000 M⁻¹ s⁻¹.

With peptide 19 (PhdSTm52-73-K73A) the Kd [4] was 0.087 nM, the koff [4] was 0.000126 s⁻¹ and the kon [4] was 1.44e+06 M⁻¹ s⁻¹. The kon [5] was 1.08e+06 M⁻¹ s⁻¹ and 2.12e+06 M⁻¹ s⁻¹ and 1.28e+06 M⁻¹ s⁻¹.

For “Phd1-73 (E. coli P1 Phage): full-length Phd antitoxin from E. coli P1 phage, literature values”, the Kd ([6]; ref 5 (ESI), read-out: Kd (nM) SPR) is listed as 1300 nM.

With peptide 1 (PhdSTm52-73) the koff [4] was 9.1e-05 s⁻¹, the kon [4] was 1.25e+06 M⁻¹ s⁻¹ and the kon [7] was 1.1e+06 1/(M s) (2×) and 1.6e+06 1/(M s) and 1.3e+06 1/(M s).

For peptide 12 (PhdSTm52-73-N65A), the Kd [4] was 0.145 nM, the koff [4] was 0.000203 s⁻¹ and the kon [4] was 1.4e+06 M⁻¹ s⁻¹. For the same molecule, the kon [8] was 1.3e+06 1/(M s) (2×) and 1.6e+06 1/(M s) and 1.4e+06 1/(M s).

In the case of “Phd52-73 (E. coli P1 Phage): Phd residues 52-73 of E. coli P1 phage, literature value (LDAEFASLFDTLDSTNKELVNR; UniProt Q06253 52-73, looked up, fragment)”, the Kd ([6]; ref 6 (ESI), read-out: Kd (nM) ITC) is listed as 1 nM.

In the case of “Phd51-73 (E. coli P1 Phage): Phd residues 51-73 of E. coli P1 phage, literature value (ALDAEFASLFDTLDSTNKELVNR; UniProt Q06253 51-73, looked up, fragment)”, the Kd (Doc (E. coli P1 Phage)) is given as 240 nM.

B1: peptide 1 (Phd 52-73, Ac-WMDDEFAAIMAVHGNELRELADK-OH) (peptide)
peptide: Ac-WMDDEFAAIMAVHGNELRELADK-OH
notes: tryptophan introduced at the N-terminus for spectrophotometric quantification; not part of Phd; also called wild-type peptide 1; C-terminal Phd peptide; source: synthetic peptide
With B1 the “ΔTm of DocSTm (DSF)” value [9] was 28.8 ± 0.9 °C and the Kd [10] was 0.073 nM.

B2: Phd antitoxin of Salmonella enterica serovar Typhimurium, full-length (PhdSTm) (natural protein)
chain: MFMRTVNYSEARQNLAEVLESAVTGGPVTITRRGHKSAVIISAEEFERYQTARMDDEFAAIMAVHGNELRELADK
notes: also called PhdSTm 1-73; full-length Phd antitoxin
For B2, the “ΔTm of DocSTm (DSF)” value [9] was 31.3 ± 0.9 °C and the “half-life of the complex” value [11] was roughly 7 h.
